According to US9066986B2, “Anti-CEACAM6 antibodies and uses thereof” (National Research Council of Canada, priority 2010, dated 2015):

What was measured:
[1] = system: HUVECs; test: In vitro capillary formation assay with conditioned media of treated BxPC3 cells; type: cell-based, human; conditions: for inhibition of tubule formation (endothelial cell angiogenesis): HUVEC in conditioned media from BxPC3 cells treated 24 hrs, 16 h culture
From the text: Angiogenesis is another critical step in the progression of pancreatic cancer. Relatively complex and dense micro-vessels are localized in pancreatic cancer tissue. Highly vascular tumors are associated with an increased risk of hepatic metastasis and a poor survival rate (Semenza, 2003). Anti-angiogenesis is a valid strategy when employing pancreatic cancer target therapy. Thus, the in vitro capillary formation assay was used to test the ability of conditioned media of sdAb-treated BxPC3 cells to inhibit HUVECs angiogenesis.
The matrix was then polymerized at 37° C. for 30 min. […] HUVEC cells were then seeded onto the polymerized matrix at 5×10^4 cells per well. The cells were cultured at 37° C. for 16 h then stained with Calcein AM (Invitrogen) for 30 min. Photographs were taken at 100× magnification employing fluorescence microscopy (Olympus BX51). Three fields that were randomly chosen were captured and the lengths of the capillaries in each field were measured.

[2] = system: BxPC3 cells; test: In vitro MTT cell proliferation assay; type: cell-based, human; conditions: for inhibition of BxPC3 cell proliferation: vs starvation medium control
Protocol: (§1) Cells were left to grow for 72 h in the presence of the sdAb, then assayed for viability. Briefly, 20 μl of MTT reagent (2 mg/ml in PBS) was added to each well. After four hours, the supernatant was removed, adherent cells were lysed, and the crystals were solubilized with 100 μl dimethyl sulfoxide (DMSO, Sigma) per well. The absorbance of the formazan product was measured with a plate reader at a wavelength of 570 nm. After subtracting background absorbance, results were expressed as absorbance.
(§2) The medium aliquots were taken from BxPC3 cultures at the time the proliferation assays (Example 9) were performed. For evaluation of dose-dependence effect, antibodies and gemcitabine were used at concentrations of 0.4-25 μM and 0.4-50 nM, respectively. The media were applied to a 10% sodium dodecyl sulfate-polyacrylamide gel electrophoresis gel (SDS-PAGE) that was supplemented with 1.5 mg/ml gelatin. The gel was run at 150 V until the bromophenol blue dye reached the bottom of the gel. SDS was removed from the gel by washing the gel four times with 2.5% Triton X-100 for 30 min at room temperature with gentle shaking using an orbital shaker (28). The gel was then incubated overnight at 37° C. in development buffer comprising 50 mM Tris-HCl, 0.2 M NaCl, 5 mM CaCl2, 5 mM ZnCl2, 0.02% Brij-35, and 0.05% NaN3 at pH 7.4. Gelatinase-digested gelatine-supplemented gels were stained with Coomassie blue. Clean bands produced by MMP-2 and MMP-9 activity were visible against the blue background after de-staining. The relative activities of the gelatinases were determined by using a densitometer (AlphaView, Fluor Chem SP, Alpha Innotech Corporation, San Leandro, Calif., USA).

[3] = system: BxPC3 cells; test: Matrigel invasion assay; type: cell-based, human; conditions: for invasiveness of treated cells decreased to: 40 μM, 20 hrs, normalized to non-treated control
Protocol: Matrigel invasion assay is designed to evaluate the capability of cells to invade into matrigel, an indication of the capacity to metastasize.
The assay was carried out by using bio-coated Matrigel invasion chambers (BD Biosciences, Bedford, Mass.). […] Only cells that could digest the matrix could migrate through the pores. […] The cells were re-suspended in RPMI medium and seeded on the tops of insert wells at 1×10^5 cells/well density and cultured at 37° C. in a humidified CO2 chamber. After 20 hrs, the non-invasive cells were scrubbed from the top of the insert well using a cotton-swap. The invasive cells on the bottom surface were stained with Calcein AM (Invitrogen) and were photographed with an Olympus BX51 microscope. All experiments were performed in triplicate.

[4] = system: MMP-2; test: Gelatin zymography of conditioned media from treated BxPC3 cells; type: cell-based, human
Protocol: (§3) Gelatin zymography is used to detect the activity of gelatinases, namely, matrix metalloproteinases MMP-2 and MMP-9 (28).
as §2

[5] = system: MMP-9; test: as above; type: cell-based, human; conditions: for effect on MMP-9 activity: media from treated BxPC3 cells
Protocol: as §3, §2

[6] = biological target: T1, CEACAM6 N-domain (Homo sapiens, UniProt P40199)
T1 sequence (P40199 35-142 limits assumed): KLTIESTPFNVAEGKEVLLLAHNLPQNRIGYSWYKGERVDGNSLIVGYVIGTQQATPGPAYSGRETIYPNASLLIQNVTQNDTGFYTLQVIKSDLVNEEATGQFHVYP
Protocol: Maxisorb 96-well microtiter plates (Nunc) were coated with 2 μg/ml recombinant CEACAM6 protein (N-domain) overnight at 4° C. in phosphate-buffered saline (PBS). 2% fat-free dry milk solution in PBS was used for 2 h at room temperature to block the residual protein-binding sites in the wells. Serial diluted serum or soluble recombinant sdAbs were added to the wells, which were incubated at 37° C. for 24 hr. Detection of llama IgGs and sdAb was performed with goat anti-llama IgG (Bethyl Lab, Montgomery, Tex.), horseradish peroxidase anti-goat conjugate (Cedarlane, Burlington, ON) and the corresponding substrate KPL for peroxidase. The reaction was stopped by adding 1 M H3PO4 and the absorption at 405 nm was measured.
The sdAb was incubated in mouse serum and the residual binding capacity was measured by ELISA then compared with the same antibody that was not incubated in serum.

[7] = system: LS174T cells; test: Flow cytometry with FITC-labelled sdAb; type: cell-based, human; conditions: FITC-labelled 2A3, 5 μg/ml, fixed LS174 cells, FACS
Protocol: (§4) For flow cytometry, purified sdAbs were labelled with FITC as instructed by the manufacturer (Invitrogen). Different cell lines were grown as a monolayer until they were approximately 80% confluent. After fixing by 10% formaldehyde in PBS for 10 minutes, cells were washed with PBS then incubated at room temperature with different FITC-labelled sdAbs. After one hour of incubation, cells were washed twice with PBS to remove unbound sdAbs and the cells were analyzed by flow cytometry using a FACS Canto flow cytometer (BD Bio-sciences).

[8] = system: BxPC3 cells; test: Flow cytometry with FITC-labelled sdAb; type: cell-based, human; conditions: FITC-labelled 2A3, 5 μg/ml, fixed BxPC3 cells, FACS
Protocol: as §4

[9] = system: A549 cells; test: Flow cytometry with FITC-labelled sdAb; type: cell-based, human; conditions: FITC-labelled 2A3, 5 μg/ml, fixed A549 cells, FACS
Protocol: as §4

[10] = system: LS174 cells; test: In vitro MTT cell proliferation assay; type: cell-based, human; conditions: 125 μg/ml antibody
Protocol: as §1

[11] = system: A549 cells; test: In vitro MTT cell proliferation assay; type: cell-based, human; conditions: 125 μg/ml antibody
Protocol: as §1

[12] = biological target: T1, CEACAM6 N-domain; test: Affinity measurement by surface plasmon resonance (Biacore 3000); set-up: made in house; host or cells: E. coli; conditions: SPR, CEACAM6 immobilized, 1:1 Langmuir binding model
Protocol: 209 RUs of CEACAM6 and 1746 RUs of Ovalbumin (as reference protein) were immobilized on research grade sensor chip CM5 (GE HealthCare). Immobilizations were performed with an amine-coupling kit (GE Healthcare) and carried out at 50 μg/ml CEACAM6 in 10 mM Acetate, pH 4 (GE Healthcare) and 50 μg/ml of Ovalbumin in 10 mM Acetate, pH 4.5. 120 μL of the sdAb at concentration of 1 nM to 60 nM were injected over the surfaces at a flow rate of 40 μl/min. Analyses were carried out at room temperature in HBS-EP, 10 mM HEPES pH 7.4, 150 mM NaCl, 3 mM EDTA and 0.005% surfactant P20 (GE Healthcare). Regeneration was performed with running buffer (HBS-EP). Data were analyzed with BIAevaluation software 4.1.
One hundred twenty microliters of CEACAM6 recombinant protein at concentration of 0.1 nM to 200 nM was injected over the surfaces at a flow rate of 40 μl min-1. Analyses were carried out at room temperature in HBS-EP comprising 10 mM HEPES pH 7.4, 150 mM NaCl, 3 mM EDTA and 0.005% surfactant P20 (GE Healthcare). Regeneration was performed with HBS-EP used as running buffer. The data were analyzed by using BIAevaluation software 4.1.

[13] = system: BxPC3 tumor; test: Ex vivo biodistribution (γ-counter); conditions: 64Cu-DOTA-labelled, 24 hr p.i., n=4
Protocol: Blood, tumor, major organs, and tissues were collected and wet-weighed. The radioactivity in the wet whole tissue was measured with a γ-counter (Packard). The results were expressed as percentage of injected dose per gram of tissue (% ID/g) for a group of 4 animals. For each mouse, the radioactivity of the tissue samples was calibrated against a known aliquot of the injected radiotracer and normalized to a body mass of 20 g. Values were expressed as mean±SD (n=4/group).

[14] = system: BxPC3 tumor; test: Small animal PET imaging and ROI analysis
Protocol: Subcutaneous BxPC3 tumor model was established in 5 to 6-week-old female athymic nude mice obtained from Harlan (Indianapolis, Ind.); 5×10^6 cells suspended in 50 μl of phosphate buffered saline (PBS) were injected and the mice underwent small animal PET studies when the tumor volume reached 100-200 mm^3 (3-4 weeks after inoculation). PET scans and image analysis were performed using an Inveon microPET scanner (Siemens Medical Solutions). About 3.7 MBq (100 μCi/5 μg) of ^64Cu-DOTA-Abs were administered via tail vein injection under isoflurane anesthesia. Five-minute static PET images were acquired at different time points post-injection (p.i.; n=4/group). The images were reconstructed using a two-dimensional ordered-subset expectation maximization (2D OSEM) algorithm, and no correction was applied for attenuation or scattering. For each scan, regions of interest (ROIs) were drawn over the tumor and major organs using vendor software (ASI Pro 5.2.4.0) on decay-corrected whole-body coronal images. The radioactivity concentrations (accumulation) within the tumors, muscle, liver, and kidneys were obtained from mean pixel values within the multiple ROI volume and then converted to MBq per milliliter per minute using the calibration factor determined for the Inveon PET system. […]

[15] = system: UM-SCC-22B cells; test: Cell uptake of 64Cu-labelled tracer; type: cell-based, human; conditions: 22B cells compared with BxPC3 cells
Protocol: (§5) Cell uptake, internalization, and efflux of ^64Cu-DOTA-2A3-Fc were performed with BxPC3 and UM-SCC-22B tumor cells (negative control). For cell uptake, the cells were seeded into 24-well plates at a density of 1×10^5 cells per well and incubated with 18.5 kBq (0.5 μCi/5 ng)/well of ^64Cu-labelled tracer at 37° C. for 15, 30, 60, and 120 min. The cells were then washed three times with chilled PBS and lysed with 500 μL 0.1 M NaOH. For efflux studies, about 18.5 kBq (0.5 μCi)/well of ^64Cu-DOTA-2A3-mFc were first incubated with BxPC3 cells in 24-well plates for 2 h at 37° C. The cells were washed three times with chilled PBS and allowed to stand with fresh buffer. At various time points, the medium was removed and the cells washed three times with chilled PBS. The cells were then lysed with 500 μL 0.1 M NaOH. The cell lysate was collected and the remaining radioactivity was measured in a γ counter (Packard, Meriden, Conn.). The cell uptake, and efflux were expressed as the percentage of the added dose (% AD) after decay correction. All experiments were performed with triplicate wells.

[16] = system: BxPC3 cells; test: Cell uptake and efflux of 64Cu-labelled tracer; type: cell-based, human
Protocol: as §5

## Nc1ccn([C@@H]2O[C@H](CO)[C@@H](O)C2(F)F)c(=O)n1 [gemcitabine, reference compound]
[1]; culture medium from treated BxPC3 cells
  effect on angiogenesis: inhibitory effects on angiogenesis were not seen
[2]; Homo sapiens, BXPC-3, 72 h, MTT, n=5
  IC50: 12 nM
[3]
  effect on invasion: did not affect angiogenesis or invasion
[4]; at high dosages
  increase of MMP-2 activity: ~10%
[4]; media from treated BxPC3 cells
  effect on MMP-2 activity: does not affect MMP-2 and MMP-9 activity
[5]; at high dosages
  increase of MMP-9 activity: ~10%
[5]
  effect on MMP-9 activity: slightly increased MMP-9 activity

B1: 2A3: anti-CEACAM6 llama single domain antibody (sdAb), SEQ ID NO:4 (protein)
VHH: QVKLEESGGGLVQAGGSLRLSCRTSGRTNSVYTMGWFRQAPGKEREFVAQIMWGAGTNTHYADSVKGRFTISRDSAESTVYLQMNSLKPEDTAVYYCAANRGIPIAGRQYDYWGQGTQVTVSS
modifications: Anti-CEACAM6 sdAb
[1]
  inhibition of tubule formation (endothelial cell angiogenesis): 21%
[2]; 50 μg/ml
  inhibition of BxPC3 cell proliferation: approximately 27%
[2]; 125 μg/ml antibody, vs irrelevant sdAb BSA12, p<0.0001
  effect on BxPC3 proliferation: inhibits BxPC3 proliferation in vitro
[6]
  residual binding capacity after incubation in mouse serum: retained its full binding capacity
[7]
  cells stained positive: about 16%
[8]
  cells stained positive: approximately 90%
[9]
  cells stained positive: ~20%
[3]
  BxPC3 invasiveness reduced by: ~73%
  invasiveness of treated cells decreased to: 27.4±8.4%
[4]; 5 μM dosage
  effect on MMP-2 activity: did not influence MMP-2 activity significantly
[4]; media from treated BxPC3 cells
  effect on MMP-2 activity: not MMP-2 activity
[5]; 5 μM dosage
  MMP-9 activity reduced to: 25%
[5]; 2A3-treated BxPC3 compared to non-treated cells
  culture medium MMP-9 activity down-regulated by: 33%
[5]
  effect on MMP-9 activity: reduce the activity of MMP-9
[10]
  effect on LS174 growth: little effect on their growth
[11]
  effect on A549 growth: little effect on their growth
[12]
  dissociation rate (kd): 0.0053 s⁻¹
[12]; sdAb 1 nM to 60 nM, room temperature
  association rate (ka): 1.1e+06 M⁻¹ s⁻¹

B2: 2A3-Fc: 2A3 sdAb fused to the mouse Fc2b fragment; heavy chain antibody (protein)
chain: B1 VHH
modifications: left off: a dimerising Fc or GST
notes: heavy chain antibody
[1]
  inhibition of tubule formation (endothelial cell angiogenesis): 49%
[13]
  BxPC3 tumor uptake, ex vivo: 95.4±29.3 % ID/g
[2]; 360 μg/ml
  inhibition of BxPC3 cell proliferation: 55%
[14]; 64Cu-DOTA-labelled, PET ROI, 24 hr p.i.
  tumor uptake: 98.2±6.12 % ID/g
[14]; 24 hr after injection, average tumor size 184 mm^3
  share of the total injected dose distributed to tumor region: Roughly 18%
[3]
  invasiveness of treated cells decreased to: 27.4±4.8%
[4]; media from treated BxPC3 cells
  effect on MMP-2 activity: not MMP-2 activity
[5]
  effect on MMP-9 activity: reduce the activity of MMP-9

B3: ^64Cu-DOTA-2A3-Fc: 2A3-Fc conjugated with DOTA and labelled with 64Cu, PET tracer (conjugate)
chain: B1 VHH
modifications: left off: a dimerising Fc or GST
[15]
  cell uptake: much lower uptake
[16]; 2 hr incubation, 37° C.
  total cell uptake: 10.13±0.05 % of total added dose
[16]; after 2 h incubation in medium devoid of radioactivity
  radioactivity retained on the cells (efflux): more than 65%
